In the nanobody polyreactivity screen of Harvey et al. (2022):

Assay: yeast display, Sf9 membrane polyspecificity reagent, FACS + sequencing; frameworks hold sequencing errors
How it was run: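 Genes from sorted yeast were amplified by colony PCR, read by MiSeq 2 × 250 sequencing and filtered on CDR length. These cells carried a synthetic nanobody library in Saccharomyces cerevisiae BJ5465 and were sorted by FACS into low and high (top ~1%) gates on anti-HA and streptavidin fluorescence. Polyreactivity is labelled according to the gate of origin.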

Sequence | polyreactivity (PSR sort gate)
QVHLVESGVGLVQAGCSLRLSCAASGIIFLTNAMGWYRQAPGKERELVAAITAIGGSTYYADSVKGRFTISRDNAKNTVYLQINSLKPEDTAVYYCAADFSYVYYLYDYWGQGTQVTVSS | low polyreactivity
QVQLVEYGAALVKAGGSLRLSCAPSGSIFDFYVMGWYRQAPGKERELVAAISSGGSTYYADSVKGRFTISRDNAKNTVYLQMNSLKPEDSAVYYCAAYPEYVSGAWYDYWGLGTQVTVSS | low polyreactivity
QVQLVESGGGLVQAGGSLRLSCAASGRTFKQYAMGWYRQAPGKERELVAAISRTGGRTYYADSVKGRFTISRDNAKNTVYLQMNSLKPEDTAVYYCNAVYYWYKGDYWGQGTQVTVSS | high polyreactivity
QVQLVESGGGLVQAGGSLRLSCAASGNTFWGNAMGWYRQAPGKERELVATISASSGSTYYADSVKGRFTISRDNAKNTVYLQMNSLKPEDTAVYYCAKTALRYLKHGRTKGDYWGQGTQVTVSS | low polyreactivity
QVKLVESGGGLVQAGGSLRLSCAASGSTFYAYVMGWYRQAPGKARELVAAISKGGGSTYYADSVKGRFTISRDNAKNTVYLQMNSLKPEDTAVYYSAAYASYSNYRKYNYWGQGTQVTVSS | high polyreactivity
QVQLVESGGGLVQAGGSLRLSCAASGRIFYGYTMGWYRQAPGKERELVAAITWSGGSTHYADSVKGRFTISRDNAKNTVYLQMNSLKPEVTAVYYCNARRRSVYRGLYDYWGQGTQVTVSS | high polyreactivity
QVQLLESGGGLVLAGGSLRLSCAASGRIFNLYAMGWYRQAPGKERELVAAITDIGSSTYYADSVKGRFTISRDNAKNTVYLQMNSLKPEDTAVYYCNAVVKSSSRGSIAHPGYDYWGQGTQVTVSS | high polyreactivity
QVQLVESGGGLVQAGGSLRLSCAASGRIFNAYAMGWYRPAPGKERELVAAISSIGGRTYYADSVKGRFTISRDNAKNTVYLQMNSLKPVDTAVYYCAADWSYVRYYYWGQGTQVTVSS | high polyreactivity
QVQLVESVRGLVQAGGSLRISCASSGSTFFTYPMGWYRQAPGKERELVASISIGGSTNYADSVKGRFTISRDNAKNTVYLQMNSLKPEDTAVYYCAKRYFTFGVDYDYWGQGTQVSVSS | low polyreactivity
QVQLVESGGGLVQAGGSLRLSCAASGRTFPYYAMGWYRQAPGKERELVAAISSSGGSTYYADSVKGRFTISRDNAKNTVYLQMNSLKPEDTEVYYCAAVYQFIKWGDRYEYWGQGTQVTVSS | high polyreactivity
QVQLVESGGGLVQAGGSLRLSCAASGRTFKFYAMGWYRQAPGKERELVAAITSDGSTYYADSVKGRFTISRDNAKNTVYLQMNSQKPEDTAVYYCAKRSNTGRGYDYWGQGTQVTVSS | high polyreactivity
QVQLVESGGGLVQAGGSLRLSCAASGITIRLYAKGWYRQAPGKERELVAGISSGGSTYYADSVKGRFTISRDNAKNTFYLQMNSLKPEDTAVYYCAAVSYGRRRPQHFEYWGQGTQVTVSS | high polyreactivity
QVQLVESGGGLVQAGGSLRLSCAASGSTFNRYAMGWYRPAPGKERELVASISWGGGRTYYADSVKGRFTISRDNAKNTVDFQLNSLKPEDTAVYFCATDRYDRHYEVDYWGQGTQVTVSS | low polyreactivity
QVQLVESGGRLVQAGGSLRLSCAASGFTFLYYAMGWYRQAPGKERELVATITRTSRTYYADSVKGRFTISRDNAKNTVYLQMNSLKPEDTAVYYCAADTPYLRRRLGMDYWGQGTQVTVSS | high polyreactivity
QVQLVESGGGLVQAGGSLRLSCAASGFTVGYAMGWYRQAPGKEREFVAAITRGGGTRTSYADSVKGRFTISRDNAKNTVYLQMNSLKPEDTAVSYCAARRWWSPRTQYDYWGQGTQVTVSS | high polyreactivity
QVQLVESGGGLVQAGRSLRLSCAASGSTIVGYAIGWYRQAPGKDRELVAAISGSGTSTYYADSVKGRFTISRDNAKNTVYLHMISMKPEHTAVYYCIADPIFVYSSYNFWGQGTQVTVSS | low polyreactivity
QVQLVESGGGLVQAGGSLRLSCAASGSIFPRYAMGWYRQAPGKERELVAAINSGGSTNYADSVKGRFTISRDNAKNTVYLQMHSLKPEDTAVYYCNAVFISYSYRRGPTLYVYWGQGTQVTVSS | high polyreactivity
QVQLVESGGGLVQAGGSLRLSCAASGNTFKYYAMGWYRQAPGKERELVAAISYSGGSTYYADSVKGRFTISRDNAKNTVYFQMNSLKPEDTAVYYCAADLDSERYFLGQGTQVTVSS | low polyreactivity
QVQLVESGGGLVQAGGSLRLSCAASGITFVKYAMGWYRQAPGKERELVAAISGSGGSTSYADSVKGRFTISRDNAKNTVYLQMNSLKPEDTAVYYCNKAIVRYPKTRDYWGQGTQVTVSS | low polyreactivity
QVQLVESGGGLVQAGGSLRLSCAASGRTYTYYAMGWYRQAPGKERELVAAISDSGGRTYYADSVKGRFTISRDNAKNTVYLQMNSLKPEDTAVYYCAATTYPYYRFDYWGQGTQVTVSS | high polyreactivity
QVQLEESGGGLVQAGGSLRLSCAASGITFTLNAMGWYRQAPGKERELVATINRGTGTNYADSVKGRFTISRDNAKYTVYLQMNSLKPEVTAVYYCAADHRGEYDYWGQGTQVTVSS | low polyreactivity
QVQLVESGGGLVQAGGSLRLSCAASGRTFARNAMGWYRQAPGKERELGAAISSSGGSTYYADSVKGRFTISRDNAKNTVYLQMNSLKPEDTAVYYCDARSRHAYGYWGQGTQVTVSS | high polyreactivity
